{"source": "patent US20040054158A1", "about": "(GENETICS INSTITUTE, published 2004)", "binders": {"B1": {"name": "hICOS-mIgG2am (Fc fusion)", "chain": "EINGSANYEMFIFHNGGVQILCKYPDIVQQFKMQLLKGGQILCDLTKTKGSGNTVSIKSLKFCHSQLSNNSVSFFLYNLDHSHANYYFCNLSIFDPPPFKVTLTGGYLHIYESQLCCQLKFEPRGPTIKPCPPCKCPAPNLEGGPSVFIFPPKIKDVLMISLSPIVTCVVVDVSEDDPDVQISWFVNNVEVHTAQTQTHREDYNSTLRVVSALPIQHQDWMSGKAFACAVNNKDLPAPIERTISKPKGSVRAPQVYVLPPPEEEMTKKQVTLTCMVTDFMPEDIYVEWTNNGKTELNYKNTEPVLDSDGSYFMYSKLRVEKKNWVERNSYSCSVVHEGLHNHHTTKSFSRTPGK", "notes": "Fusion of human ICOS with the mutated mouse IgG2a domain"}, "B2": {"name": "mICOS-mIgG2am (Fc fusion)", "chain": "EINGSADHRMFSFHNGGVQISCKYPETVQQLKMRLFREREVLCELTKTKGSGNAVSIKNPMLCLYHLSNNSVSFFLNNPDSSQGSYYFCSLSIFDPPPFQERNLSGGYLHIYESQLCCQLKLEPRGPTIKPCPPCKCPAPNLEGGPSVFIFPPKIKDVLMISLSPIVTCVVVDVSEDDPDVQISWFVNNVEVHTAQTQTHREDYNSTLRVVSALPIQHQDWMSGKAFACAVNNKDLPAPIERTISKPKGSVRAPQVYVLPPPEEEMTKKQVTLTCMVTDFMPEDIYVEWTNNGKTELNYKNTEPVLDSDGSYFMYSKLRVEKKNWVERNSYSCSVVHEGLHNHHTTKSFSRTPGK", "notes": "Fusion of mouse ICOS with a mouse IgG2a domain mutated to reduce effector function; also called ICOS-Ig; ICOS Ig"}, "B3": {"name": "human DAP-12 expressed on transfected COS cells (other, UniProt O43914 22-113, looked up)", "chain": "LRPVQAQAQSDCSCSTVSPGVLAGIVMGDLVLTVLIALAVYFLGRLVPRGRGAAEAATRKQRITETESPYQELQGQRSDVYSDLNTQRPYYK", "notes": "whole, on cells; Negative control transfectant"}}, "key": {"[1]": {"target": "T1, murine GL50-2 (mGL50-2) expressed on transfected COS cells (mouse, UniProt Q9JHJ8 44-320)", "T1 construct": "Alternatively spliced form of 347 residues; also called mGL50-B", "T1 sequence": "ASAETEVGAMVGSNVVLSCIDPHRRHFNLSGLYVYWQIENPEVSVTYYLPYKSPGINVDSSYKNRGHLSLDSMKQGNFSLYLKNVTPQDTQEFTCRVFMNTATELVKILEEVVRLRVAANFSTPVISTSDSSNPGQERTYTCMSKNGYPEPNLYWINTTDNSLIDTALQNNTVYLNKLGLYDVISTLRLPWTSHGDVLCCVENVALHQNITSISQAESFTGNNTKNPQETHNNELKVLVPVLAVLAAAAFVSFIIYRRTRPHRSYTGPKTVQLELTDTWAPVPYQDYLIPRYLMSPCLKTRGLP", "assay": "flow cytometry on transfected COS cells"}, "[2]": {"target": "T2, murine GL50-1 (mGL50-1) expressed on transfected COS cells (mouse, UniProt Q9JHJ8 47-322)", "T2 construct": "322 amino acid protein", "T2 sequence": "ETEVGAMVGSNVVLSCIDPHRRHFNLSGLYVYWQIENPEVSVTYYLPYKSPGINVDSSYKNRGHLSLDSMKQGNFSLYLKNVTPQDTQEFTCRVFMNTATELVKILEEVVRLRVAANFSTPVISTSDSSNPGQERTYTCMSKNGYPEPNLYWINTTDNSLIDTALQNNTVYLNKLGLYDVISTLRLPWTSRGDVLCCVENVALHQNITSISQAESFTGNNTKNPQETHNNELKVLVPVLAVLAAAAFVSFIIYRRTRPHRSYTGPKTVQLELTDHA", "assay": "flow cytometry on transfected COS cells"}, "[3]": {"target": "T3, mouse B7-1 on cells (WEHI 231, undifferentiated ES cells) (mouse, UniProt Q00609 38-306)", "T3 construct": "whole, on cells; also called CD80", "T3 sequence (looked up)": "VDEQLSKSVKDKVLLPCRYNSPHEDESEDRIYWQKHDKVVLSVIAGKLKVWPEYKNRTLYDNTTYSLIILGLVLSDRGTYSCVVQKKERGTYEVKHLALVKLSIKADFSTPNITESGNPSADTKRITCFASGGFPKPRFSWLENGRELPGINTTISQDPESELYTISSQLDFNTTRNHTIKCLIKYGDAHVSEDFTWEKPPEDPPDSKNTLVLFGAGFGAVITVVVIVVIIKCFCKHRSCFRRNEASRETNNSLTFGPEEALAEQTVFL", "assay": "flow cytometry on WEHI 231 cells with blocking anti B7-1 and B7-2 antibodies"}, "[4]": {"target": "T4, mouse B7-2 on WEHI 231 cells (mouse, UniProt P42082 24-309)", "T4 construct": "whole, on cells; also called CD86", "T4 sequence (looked up)": "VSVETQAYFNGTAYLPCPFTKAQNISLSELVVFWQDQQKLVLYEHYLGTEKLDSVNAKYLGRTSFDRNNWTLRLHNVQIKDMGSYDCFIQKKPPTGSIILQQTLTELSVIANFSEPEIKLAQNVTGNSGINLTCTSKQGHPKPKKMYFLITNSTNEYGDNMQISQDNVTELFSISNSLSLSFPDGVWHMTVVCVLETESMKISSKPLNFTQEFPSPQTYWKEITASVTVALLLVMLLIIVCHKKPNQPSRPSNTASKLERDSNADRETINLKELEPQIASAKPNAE", "assay": "flow cytometry on WEHI 231 cells with blocking anti B7-1 and B7-2 antibodies"}, "[5]": {"target": "B3", "assay": "flow cytometry on transfected COS cells"}, "CD28-Ig": {"target": "T5, CD28-Ig (mouse, UniProt P31041 20-150)", "T5 construct": "not shown: Ig part not described", "T5 sequence (looked up)": "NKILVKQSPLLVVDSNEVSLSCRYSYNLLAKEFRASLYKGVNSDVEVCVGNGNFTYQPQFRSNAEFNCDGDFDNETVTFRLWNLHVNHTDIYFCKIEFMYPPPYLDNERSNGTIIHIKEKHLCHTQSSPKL", "assay": "flow cytometry on transfected COS cells"}}, "data": [{"binder": "B1", "values": [{"measurement": "binding result", "setting": "[1]", "result": "binds"}, {"measurement": "binding result", "setting": "[2]", "result": "binds"}]}, {"binder": "B2", "values": [{"measurement": "binding result", "setting": "[3]", "result": "no binding"}, {"measurement": "binding result", "setting": "[4]", "result": "no binding"}, {"measurement": "binding result", "setting": "[5]", "result": "no binding (tested: 5 µg/ml of fusion protein)"}]}, {"binder": "B3", "values": [{"measurement": "binding result", "setting": "CD28-Ig", "result": "no binding (tested: 5 µg/ml of fusion protein)"}]}]}
